# Assay results: patent US11891445 (ABL BIO, dated 2024)
# Numbering of substitutions follows the chain as printed. Numbers in names are those of the source.
# T1: recombinant human B7-H3 protein with a histidine tag linked to the C terminal (2318-B3/CF, R&D Systems) (human) (UniProt Q5ZPR3)
# T1 sequence (looked up): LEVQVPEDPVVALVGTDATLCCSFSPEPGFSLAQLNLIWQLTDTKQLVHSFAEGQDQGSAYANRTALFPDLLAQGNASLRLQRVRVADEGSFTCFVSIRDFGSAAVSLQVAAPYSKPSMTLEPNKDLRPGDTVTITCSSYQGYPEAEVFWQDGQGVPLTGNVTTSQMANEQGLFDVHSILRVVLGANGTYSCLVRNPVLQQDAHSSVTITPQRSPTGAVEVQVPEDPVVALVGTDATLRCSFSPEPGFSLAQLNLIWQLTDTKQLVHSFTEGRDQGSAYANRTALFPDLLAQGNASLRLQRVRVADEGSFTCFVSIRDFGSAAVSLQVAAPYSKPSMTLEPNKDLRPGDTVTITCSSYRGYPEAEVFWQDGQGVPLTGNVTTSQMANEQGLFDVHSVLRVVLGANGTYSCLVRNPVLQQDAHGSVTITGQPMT
# T2: recombinant human B7-H3 protein (bought antigen used for ELISA analysis and T cell activity analysis) (human, UniProt Q5ZPR3 29-461)
# T2 construct: range 1-461; also called extracellular domain (ECD) of B7-H3 protein; not shown: C-terminal histidine tag or Fc region of human IgG1 (Sino Biological 11188-H02H)
# T2 sequence (looked up): T1 sequence (looked up)
# T3: human B7-H3 expressed on a cell surface (human cancer cell lines) (human, UniProt Q5ZPR3 29-534)
# T3 construct: whole, on cells; also called cell surface expression B7-H3 antigen
# T3 sequence (looked up): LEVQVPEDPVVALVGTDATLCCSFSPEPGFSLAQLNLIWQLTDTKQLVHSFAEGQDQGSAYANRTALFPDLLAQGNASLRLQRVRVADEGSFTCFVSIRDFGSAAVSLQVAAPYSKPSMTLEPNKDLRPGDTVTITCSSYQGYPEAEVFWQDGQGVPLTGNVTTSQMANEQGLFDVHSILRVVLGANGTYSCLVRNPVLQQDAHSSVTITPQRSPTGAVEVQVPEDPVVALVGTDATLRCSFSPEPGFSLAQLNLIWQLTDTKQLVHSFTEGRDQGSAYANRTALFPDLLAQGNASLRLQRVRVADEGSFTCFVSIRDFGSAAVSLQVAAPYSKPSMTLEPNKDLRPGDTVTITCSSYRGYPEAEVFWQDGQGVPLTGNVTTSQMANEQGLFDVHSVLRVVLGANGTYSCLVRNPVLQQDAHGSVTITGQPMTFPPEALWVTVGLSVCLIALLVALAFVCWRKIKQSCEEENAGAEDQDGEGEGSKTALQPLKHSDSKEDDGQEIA
# B1: anti-B7-H3 scFv clone B5 (soluble monoclonal scFv) (scFv, part only; not given: linker, domain order and HA tag, V domains shown, not shown: another chain or arm of the molecule; small tags and cut ends)
# VH: EVQLLESGGGLVQPGGSLRLSCAASGFTFSDYAMSWVRQAPGKGLEWVSSISSGSGSIYYADSVKGRFTISRDNSKNTLYLQMNSLRAEDTAVYYCAKNLIPLDYWGQGTLVTVSS
# VL: QSVLTQPPSASGTPGQRVTISCSGSSSNIGSNAVSWYQQLPGTAPKLLIYYNSHRPSGVPDRFSGSKSGTSASLAISGLRSEDEADYYCGSWDASLNAYVFGGGTKLTVL
# B2: anti-B7-H3 scFv clone C4I (soluble monoclonal scFv) (scFv, part only; not given: linker, domain order and HA tag, V domains shown, not shown: another chain or arm of the molecule; small tags and cut ends)
# VH: B1 VH with D31G, A33Y, S50L, S53P, G54S, N99G, I101T, P102K, L103F
# VL: B1 VL with S23T, A33D, Y51A, A94D, N97S, A98G
# B3: anti-B7-H3 scFv clone D8G (soluble monoclonal scFv) (scFv, part only; not given: linker, domain order and HA tag, V domains shown, not shown: another chain or arm of the molecule; small tags and cut ends)
# VH: EVQLLESGGGLVQPGGSLRLSCAASGFTFSSYSMSWVRQAPGKGLEWVSGIYSDGSNTYYADSVKGRFTISRDNSKNTLYLQMNSLRAEDTAVYYCAKMLHRFDYWGQGTLVTVSS
# VL: B1 VL with A33S, S35T, Y51A, N52D, H54Q, S91T, A94S
# B4: anti-B7-H3 scFv clone F6V (soluble monoclonal scFv) (scFv, part only; not given: linker, domain order and HA tag, V domains shown, not shown: another chain or arm of the molecule; small tags and cut ends)
# VH: EVQLLESGGGLVQPGGSLRLSCAASGFTFSDYAMSWVRQAPGKGLEWVSGISPGGSNTYYADSVKGRFTISRDNSKNTLYLQMNSLRAEDTAVYYCAKDAWIARLLLFDYWGQGTLVTVSS
# VL: B1 VL with S35T, S53N, H54K, S91T, A94D, N97S, A98G
# B5: anti-B7-H3 scFv clone D8G M1 (soluble monoclonal scFv) (scFv, part only; not given: linker, domain order and HA tag, V domains shown, not shown: another chain or arm of the molecule; small tags and cut ends)
# VH: B3 VH with G55A
# VL: B1 VL with A33S, S35T, Y51A, N52D, H54Q, S91T, A94S
# B6: anti-B7-H3 scFv clone D8G M3 (soluble monoclonal scFv) (scFv, part only; not given: linker, domain order and HA tag, V domains shown, not shown: another chain or arm of the molecule; small tags and cut ends)
# VH: B3 VH with G55A
# VL: B1 VL with A33S, S35T, Y51A, N52D, S53V, H54Q, S91T, A94S
# B7: anti-B7-H3 antibody D8G M1 (full IgG form) (antibody, V domains shown)
# VH: B3 VH with G55A
# VL: QSVLTQPPSASGTPGQRVTISCSGSSSNIGSNSVTWYQQLPGTAPKLLIYADSQRPSGVPDRFSGSKSGTSASLAISGLRSEDEADYYCGTWDSSLNAYVFGGGTKLTVLG
# B8: anti-B7-H3 antibody D8G M3 (full IgG form) (antibody, V domains shown)
# VH: B3 VH with G55A
# VL: B7 VL with S53V
# B9: 84D (comparison group antibody, Enoblituzumab) (antibody, V domains shown)
# VH: EVQLVESGGGLVQPGGSLRLSCAASGFTFSSFGMHWVRQAPGKGLEWVAYISSDSSAIYYADTVKGRFTISRDNAKNSLYLQMNSLRDEDTAVYYCGRGRENIYYGSRLDYWGQGTTVTVSS
# VL: DIQLTQSPSFLSASVGDRVTITCKASQNVDTNVAWYQQKPGKAPKALIYSASYRYSGVPSRFSGSGSGTDFTLTISSLQPEDFATYYCQQYNNYPFTFGQGTKLEIK
# Experiments:
# [1] = molecular target: T1, recombinant human B7-H3 protein with a histidine tag linked to the C terminal (2318-B3/CF, R&D Systems) (human); test: ELISA, soluble scFv on coated B7-H3-His 100 ng per well, anti-HA HRP
# [2] = molecular target: T2, recombinant human B7-H3 protein (bought …); test: ELISA on plate-coated recombinant human B7-H3
# Experimental: Specifically, after diluting the recombinant human B7-H3 protein at a concentration of 1 µg/ml and putting it into a 96-well plate (Nunc-Immuno Plates, NUNC) in 100 µl per well, it was reacted at 4° C. for 16 hrs for coating. The recombinant human B7-H3 protein used in Example 1 was used here.
# Then, after removing the protein and washing it with PBST, a PBS buffer comprising 1% BSA (bovine serum albumin) was put at 200 µl per well and it was reacted at 37° C. for 2 hrs to block non-specific binding. Then, after diluting anti-B7-H3 antibodies prepared in Example 2 at a concentration of 10 µg/ml on the 96-well plate, 100 µl was put in each well and it was reacted at 37° C. for 1 hr. Then after it was washed with PBST. In order to detect antibodies bound to human B7-H3, HRP-connected anti-human IgG F(ab')2 antibody (Goat anti-Human IgG F(ab')2 Cross-Adsorbed Secondary Antibody, HRP, Pierce, 31414) was diluted by 1:10,000 in PBS comprising 1% bovine serum albumin (BSA), and 100 µl was put per well and it was reacted at 37° C. for about 1 hr. After washing it with PBST again, TMB (Tetramethylbenzidine, Sigma, T0440) 100 µl was put to develop color. After reacting it at RT for 5-10 min, 50 µl of 1N H_2SO_4 was put to finish the reaction, and the absorbance at 450 nm and 650 nm was measured by using a micro plate reader (molecular device).
# [3] = molecular target: T3, human B7-H3 expressed on a cell surface …; test: flow cytometry, HT29 cells, antibody 10 ug/ml
# Text: (§1) Using various kinds of cancer cells A2780 (human ovarian cancer, ECACC, 93112519), SKOV-3 (human ovarian adenocarcinoma, ATCC® HTB-77™) OVCAR-3 (human ovarian adenocarcinoma, ATCC® HTB-161™), HCT116 (colon cancer cell, ThermoFIshcer Sci), HT29 (olorectal adenocarcinoma, ATCC® HTB-38™), DLD-1 (colorectal adenocarcinoma cell lines, ATCC® CCL-221™), Calu-6 (Non-small-cell lung carcinoma, ATCC® HTB-56™), HCC1954 (TNM stage IIA, grade 3, ductal carcinoma, ATCC® CRL-2338™), HCC1187 (TNM stage IIA, ATCC® CLC-2322™), renal cancer cell line 786-0 (renal cell adenocarcinoma, ATCC® CRL-1932™), A498 (kidney carcinoma, ATCC® HTB-44™), Panc-1 (pancreas epithelioid carcinoma, TCC CRL-1469™), NCI-N87 (gastric carcinoma, TCC CRL-5822™), HeLa (cervix adenocarcinoma, ATCC® CCL-2™), JeKo-1 (Lymphoma, ATCC® CRL-3006™) and FACSCalibur (BD Biosciences) device, the degree of binding of anti-B7-H3 antibody to B7-H3 was measured as follows.
# (§2) After dissociating each cell line and washing it with PBS buffer, the number of cells was counted and adjusted to 2×10^5 cells/200 µl PBS, and then was treated with 10 µg/ml of B7-H3 monoclonal antibodies prepared in Example 2. Reaction was allowed at 4° C. for 1 hr. […] After the reaction, cells were washed in PBS and analyzed using the FACSCalibur device. […]
# [4] = molecular target: T3, human B7-H3 expressed on a cell surface …; test: flow cytometry, Hela cells, antibody 10 ug/ml
# Text: as §1, §2
# [5] = molecular target: T3, human B7-H3 expressed on a cell surface …; test: flow cytometry, 786-0 cells, antibody 10 ug/ml
# Text: as §1, §2
# [6] = molecular target: T3, human B7-H3 expressed on a cell surface …; test: flow cytometry, A-498 cells, antibody 10 ug/ml
# Text: as §1, §2
# [7] = molecular target: T3, human B7-H3 expressed on a cell surface …; test: flow cytometry, A2780 cells, antibody 10 ug/ml
# Text: as §1, §2
# [8] = molecular target: T3, human B7-H3 expressed on a cell surface …; test: flow cytometry, DLD-1 cells, antibody 10 ug/ml
# Text: as §1, §2
# [9] = molecular target: T3, human B7-H3 expressed on a cell surface …; test: flow cytometry, MCF-7 cells, antibody 10 ug/ml
# [10] = molecular target: T3, human B7-H3 expressed on a cell surface …; test: flow cytometry, Calu-6 cells, antibody 10 ug/ml
# Text: as §1, §2
# [11] = molecular target: T3, human B7-H3 expressed on a cell surface …; test: flow cytometry, HCT116 cells, antibody 10 ug/ml
# Text: as §1, §2
# [12] = molecular target: T3, human B7-H3 expressed on a cell surface …; test: flow cytometry, JeKo-1 cells, antibody 10 ug/ml
# Text: as §1, §2
# [13] = molecular target: T3, human B7-H3 expressed on a cell surface …; test: flow cytometry, Panc-1 cells, antibody 10 ug/ml
# Text: as §1, §2
# [14] = molecular target: T3, human B7-H3 expressed on a cell surface …; test: flow cytometry, SKOV-3 cells, antibody 10 ug/ml
# Text: as §1, §2
# [15] = molecular target: T3, human B7-H3 expressed on a cell surface …; test: flow cytometry, HCC1187 cells, antibody 10 ug/ml
# Text: as §1, §2
# [16] = molecular target: T3, human B7-H3 expressed on a cell surface …; test: flow cytometry, HCC1954 cells, antibody 10 ug/ml
# Text: as §1, §2
# [17] = molecular target: T3, human B7-H3 expressed on a cell surface …; test: flow cytometry, NCI-N87 cells, antibody 10 ug/ml
# Text: as §1, §2
# [18] = molecular target: T3, human B7-H3 expressed on a cell surface …; test: flow cytometry, OVCAR-3 cells, antibody 10 ug/ml
# Text: as §1, §2
# [19] = molecular target: T3, human B7-H3 expressed on a cell surface …; test: flow cytometry, MDA-MB-231 cells, antibody 10 ug/ml
# [20] = molecular target: T3, human B7-H3 expressed on a cell surface …; test: flow cytometry, MDA-MB-468 cells, antibody 10 ug/ml
binder,measurement,setting,value
B1,absorbance at 450 nm,[1],1
B2,absorbance at 450 nm,[1],1
B3,absorbance at 450 nm,[1],1
B4,absorbance at 450 nm,[1],1
B5,absorbance at 450 nm,[1],1
B6,absorbance at 450 nm,[1],1
B7,EC50 (read off the curve),[2],~20 pM
B8,EC50 (read off the curve),[2],~20 pM
B9,MFI Ratio,[3],8.9 ratio
same,MFI Ratio,[4],23.5 ratio
same,MFI Ratio,[5],20 ratio
same,MFI Ratio,[6],24 ratio
same,MFI Ratio,[7],13.1 ratio
same,MFI Ratio,[8],10.7 ratio
same,MFI Ratio,[9],78 ratio
same,MFI Ratio,[10],23.2 ratio
same,MFI Ratio,[11],5.9 ratio
same,MFI Ratio,[12],2.9 ratio
same,MFI Ratio,[13],9 ratio
same,MFI Ratio,[14],11.9 ratio
same,MFI Ratio,[15],14.9 ratio
same,MFI Ratio,[16],14 ratio
same,MFI Ratio,[17],12.8 ratio
same,MFI Ratio,[18],13.7 ratio
same,MFI Ratio,[19],5.4 ratio
same,MFI Ratio,[20],8.6 ratio
